Test results reported in patent US5759769.

Biological target: CLTB-106 (negative control)
Test: ELISA, peptide at 1 ug per well, 2F5 at 40 ng per well; negative control

“human neutralizing monoclonal antibody 2F5” showed an Absorbance (450 nm) (absorbance at 450 nm) of 0.07.
